# Article PMC9352680, “A comprehensive thermodynamic model for RNA binding by the Saccharomyces cerevisiae Pumilio protein PUF4”
# Substitutions are numbered along the chain they refer to. Names may count otherwise.
# T1: PUF4 RNA-binding domain (Saccharomyces cerevisiae, UniProt P25339 537-888)
# T1 sequence: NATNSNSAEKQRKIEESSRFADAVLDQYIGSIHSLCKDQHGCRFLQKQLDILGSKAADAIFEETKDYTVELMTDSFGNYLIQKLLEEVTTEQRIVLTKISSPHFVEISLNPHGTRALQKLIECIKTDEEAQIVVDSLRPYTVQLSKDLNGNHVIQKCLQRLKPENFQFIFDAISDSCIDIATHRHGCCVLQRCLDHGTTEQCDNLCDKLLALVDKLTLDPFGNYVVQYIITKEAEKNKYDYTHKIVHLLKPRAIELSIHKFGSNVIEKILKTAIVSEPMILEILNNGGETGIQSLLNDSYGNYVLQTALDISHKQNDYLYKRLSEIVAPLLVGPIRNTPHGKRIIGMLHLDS
# B1: Ic_S4_P5E.1_K5.1_C5.1_H5.1_A5.1_[T6A]_[A7C]_F5.1_[T8C]_[T9G]_[A10G]_T5.1 (ssRNA)
# RNA: UUUGACAACUGAUCGUUCUUUCUUGUAUACCGGUUCUUUCUCGAUCAGUUGUCUUU
# B2: Ic_S4_P5E.1_K5.1_C5.1_H5.1_A5.1_[T6G]_[A7T]_F5.1_[T8A]_[T9A]_T5.1 (ssRNA)
# RNA: B1 RNA with A29G, C30U, C31A, G32A, G33A
# B3: Ic_S4_P5E.1_K5.1_C5.1_H5.1_A5.1_[A7C]_F5.1_[T9G]_[A10G]_T5.1 (ssRNA)
# RNA: B1 RNA with A29U, C31U
# B4: Ic_S4_P5E.1_K5.1_C5.1_H5.1_A5.1_[T5A]_[T6A]_F5.1_[T8C]_[T9A]_[A10C]_T5.1 (ssRNA)
# RNA: B1 RNA with U28A, C30A, G32A, G33C
# B5: Ic_S4_P5E.1_K5.1_C5.1_H5.1_A5.1_[T5A]_[T6C]_F5.1_[T8G]_[T9C]_[A10T]_T5.1 (ssRNA)
# RNA: B1 RNA with U28A, A29C, C30A, C31G, G32C, G33U
# B6: Ic_S4_P5E.1_K5.1_C5.1_H5.1_A5.1_[T5C]_[T6A]_[A7T]_F5.1_[T8A]_[T9A]_[A10C]_T5.1 (ssRNA)
# RNA: B1 RNA with U28C, C30U, C31A, G32A, G33C
# B7: Ic_S4_P5E.1_K5.1_C5.1_H5.1_A5.1_[T5A]_[A7G]_F5.1_[T8G]_[A10C]_T5.1 (ssRNA)
# RNA: B1 RNA with U28A, A29U, C30G, C31G, G32U, G33C
# B8: Ic_S4_P5E.1_K5.1_C5.1_H5.1_A5.1_[T6G]_[A7G]_F5.1_[T8C]_[A10C]_T5.1 (ssRNA)
# RNA: B1 RNA with A29G, C30G, G32U, G33C
# B9: Ic_S4_P5E.1_K5.1_C5.1_H5.1_A5.1_[T5C]_[T6A]_[A7G]_F5.1_[A10G]_T5.1 (ssRNA)
# RNA: B1 RNA with U28C, C30G, C31U, G32U
# B10: Ic_S4_P5E.1_K5.1_C5.1_H5.1_A5.1_[T5A]_[A7T]_F5.1_[T8A]_[A10C]_T5.1 (ssRNA)
# RNA: B1 RNA with U28A, A29U, C30U, C31A, G32U, G33C
# B11: Ic_S4_P5E.1_K5.1_C5.1_H5.1_A5.1_[T5C]_[T6A]_[A7G]_F5.1_[T9G]_[A10C]_T5.1 (ssRNA)
# RNA: B1 RNA with U28C, C30G, C31U, G33C
# B12: Ic_S4_P5E.1_K5.1_C5.1_H5.1_A5.1_[T6A]_[A7T]_F5.1_[T8C]_[T9C]_[A10T]_T5.1 (ssRNA)
# RNA: B1 RNA with C30U, G32C, G33U
# B13: Ic_S4_P5E.1_K5.1_C5.1_H5.1_A5.1_[T5G]_[A7C]_F5.1_[T9C]_[A10G]_T5.1 (ssRNA)
# RNA: B1 RNA with U28G, A29U, C31U, G32C
# B14: Ic_S4_P5E.1_K5.1_C5.1_H5.1_A5.1_[T5A]_[T6A]_[A7T]_F5.1_[T9A]_T5.1 (ssRNA)
# RNA: B1 RNA with U28A, C30U, C31U, G32A, G33A
# B15: Ic_S4_P5E.1_K5.1_C5.1_H5.1_A5.1_[T5C]_[T6G]_[A7C]_F5.1_[T9A]_[A10C]_T5.1 (ssRNA)
# RNA: B1 RNA with U28C, A29G, C31U, G32A, G33C
# B16: Ic_S4_P5E.1_K5.1_C5.1_H5.1_A5.1_[T6C]_[A7C]_F5.1_[T8A]_[T9G]_[A10C]_T5.1 (ssRNA)
# RNA: B1 RNA with A29C, C31A, G33C
# Molecular target: T1, PUF4 RNA-binding domain
# Test: Mg; RNA-MaP; 20 mM Na-HEPES pH 7.4, 30 mM KOAc, 0.75 mM MgCl2, 0.1% Tween-20, 5% glycerol, 0.1 mg/mL BSA, 2 mM DTT; 25 C; 0.0125-409.6 nM protein
# Settings: tags: N-His6-TEV cleaved; C-SNAP kept, Cy3B-labelled; label: tethered on chip by stalled RNA polymerase
row,Binder,Kd [nM]
1,B1,144
2,B2,55.6
3,B3,27.2
4,B4,190
5,B5,662
6,B6,7.13
7,B7,1350
8,B8,849
9,B9,27.4
10,B10,126
11,B11,10.6
12,B12,14.7
13,B13,425
14,B14,2.48
15,B15,6.66
16,B16,1010
17,UCUCUUUAUGUAUAUAUAUCUCUU (ssRNA) [Id_ii_S1_P3E.2_K3.1_C3.2_[C-2T]_[T-1A]_H3.1_A3.1_F3.1_T3.2],8.02
18,UCUCUUGCUGUAUAUAUAUCUCUU (ssRNA) [Id_ii_S1_P3E.2_K3.1_C3.2_[C-2G]_[T-1C]_H3.1_A3.1_F3.1_T3.2],7.65
19,UCUCUUAGUGUAUAUAUAUCUCUU (ssRNA) [Id_i_S1_P3E.2_K3.1_C3.2_[C-2A]_[T-1G]_H3.1_A3.1_F3.1_T3.2],14.6
20,UCUCUUUGUAUAUAUAUAUCUCUU (ssRNA) [Id_ii_S1_P3E.3_K3.2_C3.2_[C-2T]_[T-1G]_H3.2_A3.1_F3.1_T3.2],6.55
21,UCUCUUUGUAUAGUCUCUCUU (ssRNA) [Ic_S1_P4E.1_K4.1_C4.1_H4.1_A4.1_[T7G]_F4.1_[A9C]_T4.1],23.4
22,UCUCUUUGUAUAAUCUCUCUU (ssRNA) [Ic_S1_P4E.1_K4.1_C4.1_H4.1_A4.1_[T7A]_F4.1_[A9C]_T4.1],15.8
23,UCUCUUUGACACUAUAUAUCUCUU (ssRNA) [Id_i_S1_P3E.4_K3.3_C3.2_[C-2T]_[T-1G]_H3.3_A3.1_F3.1_T3.2],2180
24,UCUCUUACUAUAUAUAUAUCUCUU (ssRNA) [Id_i_S1_P3E.3_K3.2_C3.2_[C-2A]_[T-1C]_H3.2_A3.1_F3.1_T3.2],458
25,UCUCUUUCUGUAUAUAUAUCUCUU (ssRNA) [Id_ii_S1_P3E.2_K3.1_C3.2_[C-2T]_[T-1C]_H3.1_A3.1_F3.1_T3.2],3.33
26,UCUCUUAGUAUAUAUAUAUCUCUU (ssRNA) [Id_i_S1_P3E.3_K3.2_C3.2_[C-2A]_[T-1G]_H3.2_A3.1_F3.1_T3.2],576
27,UCUCUUAAUAUAUAUAUAUCUCUU (ssRNA) [Id_i_S1_P3E.3_K3.2_C3.2_[C-2A]_[T-1A]_H3.2_A3.1_F3.1_T3.2],675
28,UCUCUUUGUAUAAUGUCUCUU (ssRNA) [Ic_S1_P4E.1_K4.1_C4.1_H4.1_A4.1_[T7A]_F4.1_[A9G]_T4.1],6.03
29,UCUCUUGCACACUAUAUAUCUCUU (ssRNA) [Id_i_S1_P3E.4_K3.3_C3.2_[C-2G]_[T-1C]_H3.3_A3.1_F3.1_T3.2],116
30,UCUCUUUGUAUAGUUUCUCUU (ssRNA) [Ic_S1_P4E.1_K4.1_C4.1_H4.1_A4.1_[T7G]_F4.1_[A9T]_T4.1],9.53
